# Source: IntAct's records for PubMed 11423549
# B1: Zyxin (Homo sapiens), Q15942 (parent)
# chain: MAAPRPSPAISVSVSAPAFYAPQKKFGPVVAPKPKVNPFRPGDSEPPPAPGAQRAQMGRVGEIPPPPPEDFPLPPPPLAGDGDDAEGALGGAFPPPPPPIEESFPPAPLEEEIFPSPPPPPEEEGGPEAPIPPPPQPREKVSSIDLEIDSLSSLLDDMTKNDPFKARVSSGYVPPPVATPFSSKSSTKPAAGGTAPLPPWKSPSSSQPLPQVPAPAQSQTQFHVQPQPQPKPQVQLHVQSQTQPVSLANTQPRGPPASSPAPAPKFSPVTPKFTPVASKFSPGAPGGSGSQPNQKLGHPEALSAGTGSPQPPSFTYAQQREKPRVQEKQHPVPPPAQNQNQVRSPGAPGPLTLKEVEELEQLTQQLMQDMEHPQRQNVAVNELCGRCHQPLARAQPAVRALGQLFHIACFTCHQCAQQLQGQQFYSLEGAPYCEGCYTDTLEKCNTCGEPITDRMLRATGKAYHPHCFTCVVCARPLEGTSFIVDQANRPHCVPDYHKQYAPRCSVCSEPIMPEPGRDETVRVVALDKNFHMKCYKCEDCGKPLSIEADDNGCFPLDGHVLCRKCHTARAQT
# Variants of: B1
# Conditions: with actn1_human ACTN1, P12814
# Sequence of actn1_human ACTN1, P12814 (P12814 whole entry): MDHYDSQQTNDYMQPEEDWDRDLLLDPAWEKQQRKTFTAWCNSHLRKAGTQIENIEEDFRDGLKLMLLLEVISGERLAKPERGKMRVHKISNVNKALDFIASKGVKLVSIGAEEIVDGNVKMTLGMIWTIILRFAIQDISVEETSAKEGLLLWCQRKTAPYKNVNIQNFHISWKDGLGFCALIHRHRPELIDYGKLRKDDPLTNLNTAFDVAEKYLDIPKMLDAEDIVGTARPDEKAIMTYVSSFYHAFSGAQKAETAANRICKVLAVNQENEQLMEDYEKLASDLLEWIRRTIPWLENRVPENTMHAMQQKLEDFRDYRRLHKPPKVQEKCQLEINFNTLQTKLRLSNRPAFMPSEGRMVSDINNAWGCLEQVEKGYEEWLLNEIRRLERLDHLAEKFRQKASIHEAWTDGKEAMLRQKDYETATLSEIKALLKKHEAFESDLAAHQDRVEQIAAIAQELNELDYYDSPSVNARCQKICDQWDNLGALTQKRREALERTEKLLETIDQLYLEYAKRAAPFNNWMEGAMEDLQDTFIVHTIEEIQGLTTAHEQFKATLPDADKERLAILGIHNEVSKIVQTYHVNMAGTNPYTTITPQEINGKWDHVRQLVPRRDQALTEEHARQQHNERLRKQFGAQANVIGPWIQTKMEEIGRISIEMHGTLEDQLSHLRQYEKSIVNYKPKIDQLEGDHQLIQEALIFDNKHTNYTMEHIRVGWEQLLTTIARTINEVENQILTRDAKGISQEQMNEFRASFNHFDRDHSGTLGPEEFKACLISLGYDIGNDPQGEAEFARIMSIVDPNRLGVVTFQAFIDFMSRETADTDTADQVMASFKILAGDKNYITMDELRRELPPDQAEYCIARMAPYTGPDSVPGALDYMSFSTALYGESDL
row,effect of a mutation on the interaction,Variant
1,decreasing interaction,MAAPRPSPAISVSVSAPAFYAPQKKFGPVVSPKPKVNPFRPGDSEPPPAPGAQRAQMGRVGEIPPPPPEDFPLPPPPLAGDGDDAEGALGGAFPPPPPPIEESFPPAPLEEEIFPSPPPPPEEEGGPEAPIPPPPQPREKVSSIDLEIDSLSSLLDDMTKNDPFKARVSSGYVPPPVATPFSSKSSTKPAAGGTAPLPPWKSPSSSQPLPQVPAPAQSQTQFHVQPQPQPKPQVQLHVQSQTQPVSLANTQPRGPPASSPAPAPKFSPVTPKFTPVASKFSPGAPGGSGSQPNQKLGHPEALSAGTGSPQPPSFTYAQQREKPRVQEKQHPVPPPAQNQNQVRSPGAPGPLTLKEVEELEQLTQQLMQDMEHPQRQNVAVNELCGRCHQPLARAQPAVRALGQLFHIACFTCHQCAQQLQGQQFYSLEGAPYCEGCYTDTLEKCNTCGEPITDRMLRATGKAYHPHCFTCVVCARPLEGTSFIVDQANRPHCVPDYHKQYAPRCSVCSEPIMPEPGRDETVRVVALDKNFHMKCYKCEDCGKPLSIEADDNGCFPLDGHVLCRKCHTARAQT [A31S]
2,decreasing interaction,MAAPRPSPAISVSVSAPAFYAPQKKSGPVVAPKPKVNPFRPGDSEPPPAPGAQRAQMGRVGEIPPPPPEDFPLPPPPLAGDGDDAEGALGGAFPPPPPPIEESFPPAPLEEEIFPSPPPPPEEEGGPEAPIPPPPQPREKVSSIDLEIDSLSSLLDDMTKNDPFKARVSSGYVPPPVATPFSSKSSTKPAAGGTAPLPPWKSPSSSQPLPQVPAPAQSQTQFHVQPQPQPKPQVQLHVQSQTQPVSLANTQPRGPPASSPAPAPKFSPVTPKFTPVASKFSPGAPGGSGSQPNQKLGHPEALSAGTGSPQPPSFTYAQQREKPRVQEKQHPVPPPAQNQNQVRSPGAPGPLTLKEVEELEQLTQQLMQDMEHPQRQNVAVNELCGRCHQPLARAQPAVRALGQLFHIACFTCHQCAQQLQGQQFYSLEGAPYCEGCYTDTLEKCNTCGEPITDRMLRATGKAYHPHCFTCVVCARPLEGTSFIVDQANRPHCVPDYHKQYAPRCSVCSEPIMPEPGRDETVRVVALDKNFHMKCYKCEDCGKPLSIEADDNGCFPLDGHVLCRKCHTARAQT [F26S]
3,decreasing interaction,MAAPRPSPAISVSVSAPAFYAPQKKFGPSVAPKPKVNPFRPGDSEPPPAPGAQRAQMGRVGEIPPPPPEDFPLPPPPLAGDGDDAEGALGGAFPPPPPPIEESFPPAPLEEEIFPSPPPPPEEEGGPEAPIPPPPQPREKVSSIDLEIDSLSSLLDDMTKNDPFKARVSSGYVPPPVATPFSSKSSTKPAAGGTAPLPPWKSPSSSQPLPQVPAPAQSQTQFHVQPQPQPKPQVQLHVQSQTQPVSLANTQPRGPPASSPAPAPKFSPVTPKFTPVASKFSPGAPGGSGSQPNQKLGHPEALSAGTGSPQPPSFTYAQQREKPRVQEKQHPVPPPAQNQNQVRSPGAPGPLTLKEVEELEQLTQQLMQDMEHPQRQNVAVNELCGRCHQPLARAQPAVRALGQLFHIACFTCHQCAQQLQGQQFYSLEGAPYCEGCYTDTLEKCNTCGEPITDRMLRATGKAYHPHCFTCVVCARPLEGTSFIVDQANRPHCVPDYHKQYAPRCSVCSEPIMPEPGRDETVRVVALDKNFHMKCYKCEDCGKPLSIEADDNGCFPLDGHVLCRKCHTARAQT [V29S]
4,increasing interaction,MAAPRPSPAISVSVSAPAFYAPQKKFGPVVAPKPKVNPSRPGDSEPPPAPGAQRAQMGRVGEIPPPPPEDFPLPPPPLAGDGDDAEGALGGAFPPPPPPIEESFPPAPLEEEIFPSPPPPPEEEGGPEAPIPPPPQPREKVSSIDLEIDSLSSLLDDMTKNDPFKARVSSGYVPPPVATPFSSKSSTKPAAGGTAPLPPWKSPSSSQPLPQVPAPAQSQTQFHVQPQPQPKPQVQLHVQSQTQPVSLANTQPRGPPASSPAPAPKFSPVTPKFTPVASKFSPGAPGGSGSQPNQKLGHPEALSAGTGSPQPPSFTYAQQREKPRVQEKQHPVPPPAQNQNQVRSPGAPGPLTLKEVEELEQLTQQLMQDMEHPQRQNVAVNELCGRCHQPLARAQPAVRALGQLFHIACFTCHQCAQQLQGQQFYSLEGAPYCEGCYTDTLEKCNTCGEPITDRMLRATGKAYHPHCFTCVVCARPLEGTSFIVDQANRPHCVPDYHKQYAPRCSVCSEPIMPEPGRDETVRVVALDKNFHMKCYKCEDCGKPLSIEADDNGCFPLDGHVLCRKCHTARAQT [F39S]
